Positions of bridges follow the written chain, without caps; N, C: chain ends. No end group written: not given here.
Assays:
[1] = target: Native human Albumin Protein (human) (UniProt P02768); experiment: SPR (Nicoya OpenSPR), human albumin immobilised on COOH chip, mouse klotho as analyte at 0-40 nM
canine albumins (canine) = canine albumins (canine) (UniProt P49822); experiment: method not stated
UniProt P49822, sequence (P49822 25-608 limits assumed): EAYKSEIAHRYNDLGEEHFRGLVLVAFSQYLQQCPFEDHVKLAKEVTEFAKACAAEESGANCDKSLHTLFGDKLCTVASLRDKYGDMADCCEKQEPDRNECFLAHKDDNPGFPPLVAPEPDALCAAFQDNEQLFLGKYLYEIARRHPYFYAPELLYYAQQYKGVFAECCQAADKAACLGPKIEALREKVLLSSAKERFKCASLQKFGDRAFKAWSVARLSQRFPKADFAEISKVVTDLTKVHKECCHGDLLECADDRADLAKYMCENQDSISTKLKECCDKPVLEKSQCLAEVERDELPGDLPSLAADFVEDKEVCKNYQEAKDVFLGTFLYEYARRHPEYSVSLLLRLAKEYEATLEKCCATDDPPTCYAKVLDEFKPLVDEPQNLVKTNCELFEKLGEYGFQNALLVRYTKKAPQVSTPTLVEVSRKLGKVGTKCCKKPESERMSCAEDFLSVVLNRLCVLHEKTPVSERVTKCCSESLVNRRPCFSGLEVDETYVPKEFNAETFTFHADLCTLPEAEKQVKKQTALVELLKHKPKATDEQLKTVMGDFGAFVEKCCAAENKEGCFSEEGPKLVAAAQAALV

Mouse klotho protein (from UniProt O35082 35-982)
Kd [1]: 7.94 nM | koff [1]: 0.00681 s⁻¹ | kon [1]: 858000 M⁻¹ s⁻¹

B1: alpha Klotho with the albumin binding construct … (SEQ ID NO: 4) attached to the terminal end (peptide, not shown: small tags and cut ends)
peptide: GGSGGSGGSGGRLIEDICLPRWGCLWEDD
modifications: disulfide 18-24 (inferred); also: fused to alpha Klotho, terminus not given here
Kd (canine albumins (canine)): < 19 nM
